Here are results for 1 substance from patent US20150273076A1, “SP1 POLYPEPTIDES, MODIFIED SP1 POLYPEPTIDES AND USES THEREOF” (Fulcrum SP Ltd., priority 2006, published 2015).

The test system of one series is proteinase K or alkalase. Briefly: Protease resistance by SDS PAGE. It is filed as physicochemical. The settings on record: V8 protease, similar with trypsin, subtilysine. The protocol: Protease Susceptibility Examination of SP1—SP1 (10 μg) prepared either in V8 protease digestion buffer (125 mM Tris-HCl, pH 6.8, 10% glycerol, 0.5% SDS) or standard buffer (20 mM Tris-HCl, pH 7.5, 1 mM EDTA, 50 mM NaCl), was boiled for 2 min or not boiled prior the addition of protease (Staphylococcus aureus V8 protease, trypsin, proteinase K, Sigma Chemicals Inc., Israel). Proteases were added to a final concentration of 50 μg/ml (SP1: protease equal to 1:20, w/w). The digestion was performed at 37° C. for 1 hr. The samples were then prepared in SDS sample buffer, and boiled or not before being subjected to 17% tricine-SDS-PAGE.
SP1 is vulnerable to V8 protease or subtilysine (alcalase, Novo Industries) digestion when disassociated to its monomeric form (boiled in 0.5% SDS, or dissolved inclusion bodies). […] When the oligomer-protease mixture was further boiled in SDS sample buffer, only the SP1 monomer was observed and no peptide fragment was detected on the gel. When the same mixture was subjected to SDS-PAGE analysis without boiling, an intact complex was observed. […] Thus, whereas properly folded SP1 protein is protease resistance, unfolded protein, susceptible to protease, can be removed by protease and heat treatment (FIG. 5).

A short description of series [1]: Immunogenicity: anti SP1 antibody production by ELISA. It is filed as in vivo, C57B1 mice. To be noted: after repetitive injections. From the text: In order to determine the degree of immunogenicity of SP1, anti SP1 antibody production in both PBS- and SP1-treated animals was detected using ELISA, using either directly immobilized SP1 or rabbit anti SP1 antibodies (second antibody was HRP conjugated anti mouse IgG). Serum obtained from both PBS- and SP1-treated animals had negligible anti-SP1 antibody reaction, with no difference between the two groups.
(In general: ELISA stands for enzyme-linked immunosorbent assay.)

A short description of series [2]: Repetitive iv injections of SP1: toxicity, liver histopathology. Format: in vivo.
Procedure: 35 mg/Kg SP1 or PBS control were injected iv (tail vein) to C57B1 mail mice on days 0, 9, 16, 23, 37 and 53 (6 and 5 animals in the SP1 and PBS groups, respectively). 55 days past the first injection the animals were sacrificed and their livers were subjected to histopathology analysis.
Series [3] is described as follows: Fluorescein-amine complex formation (ultrafiltration, size exclusion HPLC). Format: binding. The protocol: FIG. 9 is a histogram showing redox-dependent complex formation with small molecules by Cys2 SP1. Pure Cys 2 mutant (1.5 mg/ml in Phosphate buffered saline, pH=7.5 (PBS)) was incubated for 2 hours at room temp, with I mM fluorescein-amine with or without glutathione (reduced form, GSH 3 mM). Binding reaction was stopped by adding hydrogen peroxide (0.01%), followed by ultra filtration (using a 30 kD cutoff filter) and extensive wash. Absorption analysis was conducted at both 278 and 492 nm, and the results expressed as the 492/278 ratio. Note that in the absence of the reducing agent (GSH), retention of the flourescein-amine is negligible;
FIG. 10 is a graphic representation of the redox-dependent fluorescein amine complex formation by Cys2 SP1, compared to the recombinant SP1. Fluorescein-amine was incubated with pure SP1 or Cys2 SP1 mutant (1.5 mg/ml in PBS pH=7.5) in the absence or presence of DTT (10 mM). Binding reaction was stopped by adding hydrogen peroxide (0.01%), followed by ultra filtration (using 30 kD cutoff filter) and extensive wash. Samples were analyzed by Gel filtration HPLC, and detected at both 228 and 490 nm. Calculated data is shown on the right.
FIG. 11 is a histogram illustrating the concentration dependent complex formation with fluorescein-amine by Cys2 SP1. Huorescien-amine (10, 33, 100 or 333 mM) was incubated with Cys 2 SP1 or pure wild type SP1 in the presence of 10 mM DTT, and the bound and unbound fractions analyzed by ultra-filtration and HPLC as in FIG. 10.
Ultrafiltration was used for the detection of complex formation with the water soluble ligands FA and DOX which have a distinctive absorption properties and can be determined by spectroscopic measurements. […] Several additional washing cycles remove all remaining free FA and DOX, and the ligand-SP1 complex remains in the retained fraction.
Size exclusion chromatography is a common method for separation of molecules of different sizes under mild conditions and was employed to test FA and DOX complex formation under mild conditions. SP1 is eluted from the column after 7 min and is detected at 278 nm only, and free FA is eluted from the column (TSK G3000 SWXL, Tosohaas) after 16 min and is detected at 490 nm. The SP1-FA and SP1-DOX complexes also eluted at the same time but is detected also at 490 and 475 nm, respectively. DOX/SP1 ratio is determine from the standard curve obtained in solution.
5. Can complexed ligand be stabilized by association with the Cys2 SP1? Fluoresceine amine (FA): FA absorption peak is at 490 nm and at much lower extend at 278 nm (for a given FA concentration OD278/OD490=0.19)(see FIG. 31), when SP1 absorption peak is at 278 nm (see FIG. 30), and it is not detected at 490 nm. […] FA complexing with the Cys2 Sp1 variant was determined following incubation of FA and Cys2 SP1 variant in the absence or presence of GSH, followed by protein oxidation, ultra filtration (30 kDa cutoff) and exhaustive wash of the retained fraction with PBS with or without GSH. Absorption analysis at both 278 and 490 nm.
(In general: SEC sorts molecules by how far they enter the pores of the column.)

“wild type: stress related SP1 protein from aspen (Populus tremula), recombinant, SEQ ID NO:1”: in the series with proteinase K or alkalase, the “digestion of the intact oligomer by protease” value is given as “unable to digest the intact oligomer”. Further, the “anti-SP1 antibody reaction in serum” value in series [1] is reported as “negligible”. Also, the “animals without any pathological response” value in series [2] (35 mg/Kg iv on days 0, 9, 16, 23, 37 and 53, up to 55 days) is on record as “Four out of six”. Moreover, the liver histopathology result in series [2] (55 days past the first injection) is “appeared normal”. The animals died entry in series [2] (after 17 days, unknown reason) is given as “Two out of 6”. Besides, the “FA complexing at low ligand concentration” value in series [3] (10 μM FA, 10 mM DTT) is on record as “no discernable FA complexing”. Moreover, the “complex formation with the FA marker” value in series [3] (presence or absence of reducing agents, size exclusion chromatography) is reported as “hardly forms complexes”.
